Measured values reported in patent US20250333521A1 (SYNTHEKINE, published 2025).
Positions count from the first letter of the chain named.

T1: human IL10Rb ECD antigen (human, UniProt Q08334 20-220)
T1 construct: Coat of the panning and PE-ELISA plates; also called hIL10Rb extracellular domain; IL10Rb (plate coat)
T1 sequence: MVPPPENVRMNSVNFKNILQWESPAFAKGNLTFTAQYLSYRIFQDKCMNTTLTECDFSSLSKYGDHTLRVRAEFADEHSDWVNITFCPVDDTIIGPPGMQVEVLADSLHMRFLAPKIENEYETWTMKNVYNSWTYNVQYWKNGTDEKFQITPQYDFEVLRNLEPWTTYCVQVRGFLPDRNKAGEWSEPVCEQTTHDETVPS

B1: hIL10Rb_VHH-4 (VHH)
VHH: QVQLQESGGGSIQAGGSLRLSCAASRYLYSIDYMAWFRQSPGKEREPVAVIYTASGATFYPDSVKGRFTISQDNAKMTVYLQMNSLKSEDTAMYYCAAVRKTDSYLFDAQSFTYWGQGTQVTVSS
notes: Periplasmic extract of the phage clone (pMECS, HA/His) as tested in PE-ELISA; not shown: HA/His tag of the pMECS phagemid
B2: hIL10Rb_VHH-6 (VHH)
VHH: B1 VHH with R19T, Y27D, I31T, D32N, M34V, P47A, F59L, P61S, D103G, S104H
notes: as for B1

Target: T1, human IL10Rb ECD antigen
Assay: periplasmic extract ELISA of phage clones on antigen-coated plate
Protocol: Upon completion of the biopanning of Example 3, three 96-well plates of individual phage clones were isolated in order to perform periplasmic extract ELISA (PE-ELISA) on IL10Rb coated plates to identify positive VHH binders that selectively bound IL10Rb. A 96-well plate was coated with IL10Rb and PBS under the same conditions. Next, wells were blocked at 37° C. for 1 h. Then, 100 μl of extracted antibodies was added to each well and incubated for 1 h. Subsequently, 100 μl of anti-tag polyclonal antibody conjugated to HRP was added to each well and incubated at 37° C. for 1 h. Plates were developed with TMB substrate. The reaction was stopped by the addition of H2SO4. Absorbance at 450 nm was read on a microtiter plate reader. Antibodies with absorbance of the antigen-coated well at least threefold greater than PBS-coated control are VHHs that specifically bind to IL10Rb. Positive clones were sequenced, and sequences analyzed to identify unique clonotypes

Binder	binding result
B1	binds
B2	binds
